From the supplement of paper PMC10724198
± gives the standard deviation of the averaged measurements.

Test system: Saccharomyces cerevisiae
Assay: protein stability index of tFT-peptide fusion (C-terminal peptide) (PSI (0-1 scale)); higher = more stable (slower turnover)
Conditions: genetic background: wild type; temperature: 30 C
Method: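 Multiplexed protein stability (MPS) profiling in S. cerevisiae. Random 12-aa peptides (tFT-X12 library) are fused to the C-terminus of a sfGFP-mCherry tandem fluorescent timer, after mCherry and a GGGS linker. Cells are FACS-sorted into 8 mCherry/sfGFP bins and deep-sequenced. The protein stability index (PSI) is the read-weighted bin average, scaled from 0 (unstable) to 1 (stable). Only peptides with >10 reads are reported; cells were grown at 30 °C in SC-His with glucose.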
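Also: PSI is a weighted mean of sequencing reads over stability bins, variants kept only with over 10 reads, mCherry proximal and sfGFP distal, peptide attached via GGGS linker.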

Row | Sequence | protein stability index
1 | GLRAAGCRAVGG | 0.672 ± 0.025
2 | GLRGFCGVIEFF | 0.721 ± 0.14
3 | GLRGRRRAAGRV | 0.726 ± 0.06
4 | GLRLLVLPDSWS | 0.682 ± 0.056
5 | GLSSPLPLALPV | 0.649 ± 0.023
6 | GLSVVFRIPPGS | 0.735 ± 0.043
7 | GLVLVGGGGGAV | 0.577 ± 0.051
8 | GLVWLGFWCYPL | 0.55646 ± 6.9e-05
9 | GLWAEGCGGEVV | 0.653 ± 0.0083
10 | GLWSGWGMVGCV | 0.737 ± 0.047
11 | GLYSIAGGSFGE | 0.721 ± 0.026
12 | GLYYRGPSKKER | 0.73 ± 0.02
13 | GMFDCIPPGTIP | 0.741 ± 0.094
14 | GMGESGAGMVGW | 0.727 ± 0.013
15 | GMGRGRGNANEG | 0.622 ± 0.045
16 | GMLCRAGPVRNV | 0.732 ± 0.011
17 | GMNCDMCRIRTL | 0.683 ± 0.0088
18 | GMSFNVPLWGSI | 0.69 ± 0.086
19 | GMVEVSTKTKRR | 0.719 ± 0.0092
20 | GMVSPVRIVSRR | 0.654 ± 0.024
21 | GMWFRIGHCRFA | 0.684 ± 0.058
22 | GMWGGLSPFLGQ | 0.691 ± 0.015
23 | GNDRRKNNICEI | 0.701 ± 0.034
24 | GNLPQIIYSKVQ | 0.609 ± 0.037
25 | GNPRRNLSTSSR | 0.712 ± 0.02

Row | Sequence | protein stability index
26 | GNRNGEFINTQI | 0.665 ± 0.027
27 | GNRYLCIEVTWV | 0.48 ± 0.055
28 | GPEYPFRCRRLF | 0.665 ± 0.039
29 | GPFPPCVVPSSS | 0.643 ± 0.048
30 | GPFWPGRFGFLC | 0.616 ± 0.0078
31 | GPGGPGGGWPLQ | 0.687 ± 0.024
32 | GPGSGWWVSCSL | 0.751 ± 0.04
33 | GPKGLLKATSLS | 0.659 ± 0.064
34 | GPLVQVTSYSRY | 0.691 ± 0.0077
35 | GPNRCPGRPVTP | 0.703 ± 0.032
36 | GPPFPPLPLPPP | 0.658 ± 0.079
37 | GPPHSGPIYLFP | 0.6748 ± 0.0043
38 | GPPPPPPPRPPP | 0.634 ± 0.007
39 | GPRLSGGLGGVG | 0.637 ± 0.045
40 | GPRRGRSGSGWM | 0.6499 ± 0.0057
41 | GPSKTGRPLSGT | 0.713 ± 0.026
42 | GPTPHQPRMDPR | 0.693 ± 0.011
43 | GPTRAIIFERRY | 0.741 ± 0.17
44 | GPVVHSAPRVRL | 0.686 ± 0.069
45 | GPWAGVRAEVKA | 0.6505 ± 0.0047
46 | GQGEGRGKIKKG | 0.782 ± 0.037
47 | GQPLLVCMSGFW | 0.684 ± 0.01
48 | GQSSYFRRFRVG | 0.6185 ± 0.0031
49 | GRAGQPCEGALP | 0.652 ± 0.021
50 | GRCLGREGVCGL | 0.673 ± 0.018

Row | Sequence | protein stability index
51 | GRCLSGRVVGGG | 0.7145 ± 0.0014
52 | GRCLWGRVGSVM | 0.707 ± 0.018
53 | GRCPPPSPPHPL | 0.68 ± 0.038
54 | GRCRPATLRGPG | 0.656 ± 0.012
55 | GREEDLVAPPFN | 0.715 ± 0.054
56 | GRFCGGAVSGGM | 0.634 ± 0.041
57 | GRFSHRCGGGVW | 0.622 ± 0.046
58 | GRFVAPDSHPVG | 0.682 ± 0.021
59 | GRGAGRATQSPP | 0.597 ± 0.064
60 | GRGCRGKDWWLW | 0.74 ± 0.055
61 | GRGEEKRDGGRR | 0.673 ± 0.059
62 | GRGEKKKGAKKI | 0.728 ± 0.028
63 | GRGERDIGVNQS | 0.6792 ± 0.0031
64 | GRGFGVILGGCS | 0.692 ± 0.02
65 | GRGGEGQGKRRE | 0.668 ± 0.034
66 | GRGSAVTGVYGV | 0.664 ± 0.059
67 | GRHRGNVWGAVA | 0.701 ± 0.043
68 | GRKAEAEASLFS | 0.643 ± 0.1
69 | GRKKKRREEKDT | 0.609 ± 0.027
70 | GRKKTSAGGNQE | 0.702 ± 0.11
71 | GRKLLAGPDGDI | 0.658 ± 0.039
72 | GRLSQWVPNGRA | 0.681 ± 0.076
73 | GRNAGPSLLPAL | 0.684 ± 0.038
74 | GRNDYYTRKISV | 0.728 ± 0.17
75 | GRNMQVTVQNRG | 0.735 ± 0.02

Row | Sequence | protein stability index
76 | GRPSSMCTGWKV | 0.74 ± 0.054
77 | GRPYPPHFQHPS | 0.773 ± 0.022
78 | GRRRCGGGVEVC | 0.668 ± 0.014
79 | GRSCSSWSSWGF | 0.716 ± 0.01
80 | GRSGGVGVLWGG | 0.728 ± 0.017
81 | GRSGSGGTWELG | 0.643 ± 0.039
82 | GRSHVGGCGGEG | 0.693 ± 0.035
83 | GRSRAALASHIL | 0.612 ± 0.058
84 | GRTCCGGGVGFG | 0.595 ± 0.033
85 | GRTEMNRIETTS | 0.699 ± 0.037
86 | GRVRGVEGIGKG | 0.663 ± 0.018
87 | GRVVLRISCAQI | 0.6144 ± 0.00074
88 | GRVVVKTFRDFF | 0.635 ± 0.064
89 | GSAFIRFRSSFG | 0.638 ± 0.022
90 | GSCTVLPPPGPP | 0.724 ± 0.018
91 | GSFGQLIIRYSS | 0.568 ± 0.0088
92 | GSFLGVRPGNVF | 0.828 ± 0.055
93 | GSGGGEVCGCGG | 0.681 ± 0.048
94 | GSGIFHPVDLGL | 0.688 ± 0.02
95 | GSGLEAGVRRWG | 0.67 ± 0.016
96 | GSGRGRETYIAK | 0.67947 ± 0.0002
97 | GSGRPARCVEGG | 0.644 ± 0.03
98 | GSGVGSRARRGR | 0.695 ± 0.02
